According to patent US20130005646A1 (Novo Nordisk, published 2013):
Starred links: 1 amine or outer side, 2 acyl side, 3 side chain; linkers in the order of their positions; H or OH if unused. Positions of bridges follow the written chain, without caps; N, C: chain ends. *: point of attachment. C20 diacid = O=C(O)CCCCCCCCCCCCCCCCCCC(=O)*; γGlu = O=C(O)[C@H](CCC(=O)[*:2])N[*:1]

T1: human amylin 3(a) receptor (human calcitonin receptor + RAMP-3) (human, UniProt P30988 25-474; O60896 24-148)
T1 sequence (looked up) 1: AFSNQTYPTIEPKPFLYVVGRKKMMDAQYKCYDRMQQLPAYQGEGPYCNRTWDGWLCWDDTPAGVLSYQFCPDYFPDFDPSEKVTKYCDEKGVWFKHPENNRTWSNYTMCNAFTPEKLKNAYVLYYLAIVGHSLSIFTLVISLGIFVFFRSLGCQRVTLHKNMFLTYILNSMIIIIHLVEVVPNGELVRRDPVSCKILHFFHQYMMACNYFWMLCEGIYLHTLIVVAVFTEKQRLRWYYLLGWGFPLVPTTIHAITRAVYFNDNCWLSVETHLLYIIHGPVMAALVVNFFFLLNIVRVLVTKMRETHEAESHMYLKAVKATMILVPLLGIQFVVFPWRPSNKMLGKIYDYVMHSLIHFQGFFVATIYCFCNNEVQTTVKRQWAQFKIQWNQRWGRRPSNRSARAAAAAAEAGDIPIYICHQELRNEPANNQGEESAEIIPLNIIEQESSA
T1 sequence (looked up) 2: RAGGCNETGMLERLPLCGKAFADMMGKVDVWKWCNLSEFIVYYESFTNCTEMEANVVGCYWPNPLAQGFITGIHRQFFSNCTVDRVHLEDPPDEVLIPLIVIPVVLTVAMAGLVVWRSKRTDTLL

T2: human calcitonin (a) receptor (human, UniProt P30988 25-474)
T2 sequence (looked up): T1 sequence (looked up) 1

B1: N-alpha-[(S)-4-Carboxy-4-(19-carboxynonadecanoylamino)butyryl]-[des1,Glu14,His17]-pramlintide (peptide)
peptide: {C20 diacid-γGlu}-CNTATCATQRLAEFLHHSSNNFGPILPPTNVGSNTY-NH2
modifications: disulfide 1-6
SMILES: CC[C@H](C)[C@H](NC(=O)[C@@H]1CCCN1C(=O)CNC(=O)[C@H](Cc1ccccc1)NC(=O)[C@H](CC(N)=O)NC(=O)[C@H](CC(N)=O)NC(=O)[C@H](CO)NC(=O)[C@H](CO)NC(=O)[C@H](Cc1c[nH]cn1)NC(=O)[C@H](Cc1c[nH]cn1)NC(=O)[C@H](CC(C)C)NC(=O)[C@H](Cc1ccccc1)NC(=O)[C@H](CCC(=O)O)NC(=O)[C@H](C)NC(=O)[C@H](CC(C)C)NC(=O)[C@H](CCCNC(=N)N)NC(=O)[C@H](CCC(N)=O)NC(=O)[C@@H](NC(=O)[C@H](C)NC(=O)[C@@H]1CSSC[C@H](NC(=O)CC[C@H](NC(=O)CCCCCCCCCCCCCCCCCCC(=O)O)C(=O)O)C(=O)N[C@@H](CC(N)=O)C(=O)N[C@@H]([C@@H](C)O)C(=O)N[C@@H](C)C(=O)N[C@@H]([C@@H](C)O)C(=O)N1)[C@@H](C)O)C(=O)N[C@@H](CC(C)C)C(=O)N1CCC[C@H]1C(=O)N1CCC[C@H]1C(=O)N[C@H](C(=O)N[C@@H](CC(N)=O)C(=O)N[C@H](C(=O)NCC(=O)N[C@@H](CO)C(=O)N[C@@H](CC(N)=O)C(=O)N[C@H](C(=O)N[C@@H](Cc1ccc(O)cc1)C(N)=O)[C@@H](C)O)C(C)C)[C@@H](C)O
B2: N-alpha-[(S)-4-Carboxy-4-(19-carboxynonadecanoylamino)butyryl]-[Glu1,Glu14,His17]-pramlintide (peptide)
peptide: {C20 diacid-γGlu}-ECNTATCATQRLAEFLHHSSNNFGPILPPTNVGSNTY-NH2
modifications: disulfide 2-7
SMILES: CC[C@H](C)[C@H](NC(=O)[C@@H]1CCCN1C(=O)CNC(=O)[C@H](Cc1ccccc1)NC(=O)[C@H](CC(N)=O)NC(=O)[C@H](CC(N)=O)NC(=O)[C@H](CO)NC(=O)[C@H](CO)NC(=O)[C@H](Cc1c[nH]cn1)NC(=O)[C@H](Cc1c[nH]cn1)NC(=O)[C@H](CC(C)C)NC(=O)[C@H](Cc1ccccc1)NC(=O)[C@H](CCC(=O)O)NC(=O)[C@H](C)NC(=O)[C@H](CC(C)C)NC(=O)[C@H](CCCNC(=N)N)NC(=O)[C@H](CCC(N)=O)NC(=O)[C@@H](NC(=O)[C@H](C)NC(=O)[C@@H]1CSSC[C@H](NC(=O)[C@H](CCC(=O)O)NC(=O)CC[C@H](NC(=O)CCCCCCCCCCCCCCCCCCC(=O)O)C(=O)O)C(=O)N[C@@H](CC(N)=O)C(=O)N[C@@H]([C@@H](C)O)C(=O)N[C@@H](C)C(=O)N[C@@H]([C@@H](C)O)C(=O)N1)[C@@H](C)O)C(=O)N[C@@H](CC(C)C)C(=O)N1CCC[C@H]1C(=O)N1CCC[C@H]1C(=O)N[C@H](C(=O)N[C@@H](CC(N)=O)C(=O)N[C@H](C(=O)NCC(=O)N[C@@H](CO)C(=O)N[C@@H](CC(N)=O)C(=O)N[C@H](C(=O)N[C@@H](Cc1ccc(O)cc1)C(N)=O)[C@@H](C)O)C(C)C)[C@@H](C)O

Experiments:
[1] = biological target: T1, human amylin 3(a) receptor (human …); assay: cell-based or functional assay
[2] = biological target: T2, human calcitonin (a) receptor; assay: cell-based or functional assay

Row | Binder | Amylin receptor human EC50 [1] [nM] | CTa receptor human EC50 [2] [nM]
1 | B1 | 0.179 | 0.259
2 | B2 | 0.377 | 0.657
